Test results published in the supplement of paper PMC10567573.

B1: TCAP (parent)
chain: YQRVLPLPIFTPAKMGATKEERED

Variants of: B1
Experiment: protein stability index of a GFP-peptide fusion (GPS, HEK-293T) (PSI 1-6); higher = more stable
Conditions: c terminus: a fixed tail appended
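Also: lentivirally expressed fusions sorted by FACS into six bins by GFP to DsRed ratio, PSI derived from sequencing read proportions per bin multiplied by bin number.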

Protein stability index, by site and new letter:
I9: F 2.31 | D 3.63 | A 3.96 | L 2.41 | R 4.16 | E 4.51 | C 3.04 | W 2.2 | N 4.47 | Q 3.74 | G 3.79 | M 3.07 | H 2.83 | K 3.96 | S 3.79 | Y 2.58 | V 2.88 | P 4.02 | T 4.02
V4: C 2 | E 1.93 | Q 1.9 | N 1.83 | S 1.72 | M 1.53 | D 1.52 | R 1.7 | K 1.8 | I 2.07 | Y 2.26 | H 1.37 | T 1.88 | G 2.82 | F 2.27 | P 2.67 | W 2.55 | L 2.18 | A 1.71
L5: T 1.98 | W 2.81 | K 2.13 | C 1.86 | G 2.89 | D 3.06 | M 1.9 | V 1.96 | F 2.52 | E 2.42 | A 2.05 | H 2.08 | Y 2.37 | R 2.7 | P 2.33 | N 1.8 | S 1.97 | Q 2.03 | I 1.87
T11: L 2.71 | G 3.12 | K 3.63 | C 1.79 | P 3.31 | E 2.52 | N 3.49 | Y 2.62 | Q 3.44 | S 2.36 | D 3.96 | W 2.25 | R 3.21 | I 2.68 | M 2.08 | A 1.87 | H 3.49 | V 2.67 | F 2.25
K14: A 1.64 | N 2.32 | G 2.65 | S 2.46 | T 1.99 | L 1.81 | E 2.63 | Q 2.32 | M 1.77 | W 1.59 | V 2.78 | H 2.18 | D 3.13 | F 2.04 | Y 1.97 | R 2.21 | C 1.69 | P 2.62 | I 1.61
Q2: G 1.41 | R 3.9 | K 4.35 | I 2.08 | P 1.55 | N 2.35 | C 1.99 | F 3.21 | T 1.89 | Y 2.93 | D 3.35 | M 2.54 | H 2.07 | L 2.58 | V 1.99 | A 1.92 | W 2.59 | S 1.87 | E 3.53
F10: Q 4.5 | S 4.06 | P 4.14 | L 3.73 | T 4.04 | N 4.05 | H 3.94 | Y 2.48 | E 4.33 | C 3.63 | R 4.18 | M 3.71 | V 3.65 | D 4.32 | I 3.72 | A 4.3 | G 4.44 | K 4.08
A17: N 2.08 | F 1.74 | L 1.67 | I 1.84 | W 2.11 | E 2.07 | D 2.1 | M 2.38 | Q 1.86 | P 1.97 | K 2.21 | G 1.72 | S 2.02 | R 2.05 | H 2.06 | T 1.78 | V 1.76 | C 2.24 | Y 1.89
R3: G 3 | K 2.5 | A 2.15 | T 2.05 | E 2.03 | L 1.86 | N 2.46 | W 2.69 | P 1.55 | V 2.09 | M 3.43 | F 2.63 | D 2.03 | S 2.3 | Q 2.78 | H 1.88
